Data as given in the supplement of paper PMC9732359.
± gives the uncertainty stated by the source.

Test: protein stability index of a GFP-peptide fusion (yeast GPS) (PSI 1-4); higher = more stable; sorted into four equal gates, so the index is relative within each strain
Method in brief: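 Plasmids in a pooled yeast library fused tiled 17-residue yeast protein peptides downstream of GFP and also expressed Cherry. Mid-log cultures grown without leucine were sorted into four equal gates by GFP/Cherry fluorescence ratio. Each gate's plasmids were PCR-amplified and Illumina-sequenced, and reads were matched to strains by barcodes. The protein stability index is derived by multiplying each gate's read frequency by its gate number and summing the results.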

| Sequence | protein stability index (doa10∆) | protein stability index (pdr5∆) | protein stability index (san1∆) | protein stability index (ubr1∆) |
| --- | --- | --- | --- | --- |
| ITGEKLDTQLNDLRVSL [SMC1] | 1.3 ± 0.068 | 2 ± 0.076 | 1.58 ± 0.18 | 1.16 ± 0.032 |
| PCNNRGKHSIGLIWYLL [RPS0A] | 2.56 ± 0.058 | 2.37 ± 0.054 | 2.49 ± 0.058 | 2.37 ± 0.044 |
| DAMIAQRSKKIQPTAKV [DIS3] | 1.83 ± 0.082 | 1.99 ± 0.084 | 1.59 ± 0.067 | 1.69 ± 0.068 |
| NPIANHTVTNSPNPTLQ [SNF5] | 2.64 ± 0.038 | 2.83 ± 0.046 | 2.65 ± 0.038 | 2.65 ± 0.03 |
| MKATSNTLEEFEHGRTP [FAS2] | 2.8 ± 0.08 | 2.56 ± 0.16 | 1.38 ± 0.15 | 3.66 ± 0.12 |
| LKLLKENIIQMEMIENR [FAS1] | 1.87 ± 0.065 | 2.27 ± 0.094 | 1.32 ± 0.12 | 1.93 ± 0.074 |
| KEQYNRYRDLMISCLMN [MTR3] | 2.07 ± 0.085 | 2.41 ± 0.053 | 2.4 ± 0.07 | 2.46 ± 0.086 |
| CRYSCLALERMVPKRST [YCS4] | 2.71 ± 0.27 |  |  | 2.02 ± 0.18 |
| VAGSKCWAVRADVHFLD [RRP45] | 2.07 ± 0.17 | 2.23 ± 0.14 |  | 2.26 ± 0.22 |
| RSPLVTPMDESSYDLLF [SRP72] | 2.71 ± 0.13 | 3.06 ± 0.1 | 3.29 ± 0.12 | 3.2 ± 0.08 |
| RLWHTLKYYQDLKNTRM [SNF5] | 1.77 ± 0.057 | 2.02 ± 0.048 | 2.01 ± 0.06 | 1.7 ± 0.051 |
| FYERLDKSTTQLRKEIQ [MED11] | 2.61 ± 0.063 | 2.82 ± 0.081 | 2.47 ± 0.064 | 2.9 ± 0.072 |
| YSILGDRFKYRSVDRAG [POP4] |  | 2.93 ± 0.23 | 3.45 ± 0.13 |  |
| PSNESCSPWSLQISDIP [SRB5] | 2.87 ± 0.058 | 2.78 ± 0.047 | 2.97 ± 0.039 | 2.91 ± 0.032 |
| GISLVMEIVANAKESNY [MED1] | 1.77 ± 0.065 | 1.98 ± 0.069 | 2.28 ± 0.085 | 2.15 ± 0.043 |
| ENTPEPDLPALEASYSK [SMC4] | 2.36 ± 0.12 | 2.61 ± 0.091 | 3.18 ± 0.068 | 2.99 ± 0.12 |
| YKENEAMLRENIEVILS [SNF12] | 2.42 ± 0.053 | 2.73 ± 0.071 | 2.84 ± 0.046 | 2.53 ± 0.057 |
| EKKPASKAPAEKKPAAK [HTB1] | 3.13 ± 0.08 | 3.19 ± 0.063 | 3 ± 0.059 | 3.11 ± 0.054 |
| NEIESRQLTSLGSKKEL [SNU114] | 3.17 ± 0.075 | 3.28 ± 0.078 | 3.31 ± 0.092 | 3.37 ± 0.058 |
| RAVGGEVGASAALAPKI [RPL12A] | 3.37 ± 0.14 | 3.21 ± 0.17 | 1.86 ± 0.18 | 3.2 ± 0.1 |

| Sequence | protein stability index (doa10∆) | protein stability index (pdr5∆) | protein stability index (san1∆) | protein stability index (ubr1∆) |
| --- | --- | --- | --- | --- |
| YHNLTTHNSYEKACQVL [RPN6] | 3.33 ± 0.071 | 3.11 ± 0.058 | 3.1 ± 0.063 | 2.99 ± 0.037 |
| NISFYKLHVNWNLNATK [SIN4] | 2.43 ± 0.072 | 2.23 ± 0.077 | 2.18 ± 0.16 | 1.48 ± 0.081 |
| FVTRKSRKRAKKMTKKA [PRP8] | 3.02 ± 0.075 | 2.91 ± 0.12 | 2.61 ± 0.11 | 2.95 ± 0.12 |
| EKLTMVFQDNVYKIYNH [SIN4] | 2.08 ± 0.06 | 2.53 ± 0.053 | 1.6 ± 0.086 | 1.81 ± 0.037 |
| SKTDNIEDPNLSSNITF [YMR153W/NUP53] | 2.84 ± 0.084 | 2.81 ± 0.08 | 3 ± 0.064 | 3.27 ± 0.073 |
| SFTPSTVPNINFSGLNG [YOR098C/NUP1] | 2.59 ± 0.066 | 2.68 ± 0.068 | 2.83 ± 0.056 | 2.97 ± 0.05 |
| QKSINHPPDFKRMLLSL [SNF2] | 1.66 ± 0.04 | 1.42 ± 0.039 | 1.71 ± 0.062 | 1.38 ± 0.022 |
| VLQKVIEWAEHHRDSNF [SKP1] | 3.08 ± 0.078 | 3.14 ± 0.063 | 3.04 ± 0.049 | 3.25 ± 0.062 |
| FSFGKPFFSSNTSSLQS [YIL149C/MLP2] | 2.95 ± 0.054 | 3.07 ± 0.052 | 2.86 ± 0.046 | 2.926 ± 0.028 |
| LLGARHYTPAVDLWSVG [SSN3] | 1.29 ± 0.19 | 1.15 ± 0.19 |  |  |
| LQNIVMDCTKEEEATMT [YIL149C/MLP2] | 3.4 ± 0.12 | 3.3 ± 0.1 | 3.31 ± 0.086 | 2.98 ± 0.089 |
| LSETNGLHKFVKGDLLQ [PRE10] |  | 3.28 ± 0.23 |  | 3.48 ± 0.11 |
| FHSAVENLVQGNGNVSE [YCG1] | 3.21 ± 0.092 | 2.97 ± 0.067 | 3.23 ± 0.069 | 3.02 ± 0.12 |
| VLETHESGIKPYFEQKI [RPT6] | 2.33 ± 0.21 | 2.29 ± 0.28 | 2.58 ± 0.065 |  |
| VIWSEDNDEKLIIRCRV [RPO21] | 3.34 ± 0.15 | 2.96 ± 0.19 | 3.53 ± 0.088 | 2.84 ± 0.19 |
| LDPNLITLALSSNPNSS [SRB4] | 2.31 ± 0.067 | 2.86 ± 0.095 | 2.4 ± 0.084 | 2.56 ± 0.11 |
| INIAQMSACVGQQSVEG [RPO21] |  |  | 3.22 ± 0.17 | 3.07 ± 0.1 |
| KALDELKPEIEKLTSKS [LRP1] | 2.86 ± 0.089 | 2.93 ± 0.077 | 2.93 ± 0.068 | 2.74 ± 0.066 |
| QQTAQTQLEQQRQLLVQ [SNF5] | 3.12 ± 0.12 | 3.15 ± 0.14 |  | 2.49 ± 0.072 |
